Molecular target: T1, GST-p23/Tmp21 (aa 1-219), from pEBG-p23/Tmp21 (full-length) (UniProt P49755 32-219)
T1 sequence (looked up): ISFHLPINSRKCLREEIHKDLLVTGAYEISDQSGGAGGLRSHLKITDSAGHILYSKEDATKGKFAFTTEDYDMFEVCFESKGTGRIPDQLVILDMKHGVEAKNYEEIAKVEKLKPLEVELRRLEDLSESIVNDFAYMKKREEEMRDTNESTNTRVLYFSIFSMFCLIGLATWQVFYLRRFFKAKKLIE
Assay: pull-down

fold increase in association with PMA against vehicle (densitometry): ~7 fold
B1: HA-β2-chimaerin (full-length) (natural protein, UniProt P52757-1 1-468, looked up)
chain: MAASSNSSLSGSSVSSDAEEYQPPIWKSYLYQLQQEAPRPKRIICPREVENRPKYYGREFHGIISREQADELLGGVEGAYILRESQRQPGCYTLALRFGNQTLNYRLFHDGKHFVGEKRFESIHDLVTDGLITLYIETKAAEYISKMTTNPIYEHIGYATLLREKVSRRLSRSKNEPRKTNVTHEEHTAVEKISSLVRRAALTHNDNHFNYEKTHNFKVHTFRGPHWCEYCANFMWGLIAQGVRCSDCGLNVHKQCSKHVPNDCQPDLKRIKKVYCCDLTTLVKAHNTQRPMVVDICIREIEARGLKSEGLYRVSGFTEHIEDVKMAFDRDGEKADISANVYPDINIITGALKLYFRDLPIPVITYDTYSKFIDAAKISNADERLEAVHEVLMLLPPAHYETLRYLMIHLKKVTMNEKDNFMNAENLGIVFGPTLMRPPEDSTLTTLHDMRYQKLIVQILIENEDVLF
